Laboratory results reported in patent US20180022797A1 (published 2018).
Ends that are not written are not given here.

Molecular target: T1, peptide 13 (TSESGELHGLTTE) (human, also: biotinylated, site not given here)
T1 construct: on the D-strand
T1 peptide: TSESGELHGLTTE
Experiment: ELISA: antibody titrated on NeutrAvidin-captured biotinylated peptide, non-linear regression
Procedure: ELISA assay was then utilized to identify the corresponding epitope(s) for each antibody. 5 μg/mL of NeutrAvidin (Pierce, USA) in 50 mM pH 9.6 sodium carbonate/bicarbonate buffer was used to coat 96-well Corning high-binding EIA/RIA plates. The plates were washed three times with TBST buffer and blocked with Superblock (Pierce, USA). Fifty to one hundred microliters of the biotinylated peptides were diluted with PBS to […] and added to each well and incubated at room temperature for one hour. […] After one hour room temperature incubation and washing steps, HRP-conjugated secondary antibody was applied. Goat-anti-mouse IgG or Fc HRP conjugates were used in the case of mouse monoclonal antibodies while goat-anti-rabbit IgG HRP conjugate antibody was used for rabbit polyclonal detection. TMB was used as the HRP substrate for the detections.

- Kd: 0.25 nM
B1: MFD108 (antibody, V domains shown)
VH: EVQLVESGGDLVKPGGSLKLSCAASGFTFSNYGMSWVRQTPDKRLEWVATITSGGSYTYYPDSVKGRFTISRDNAKNTLYLQMSSLKSEDTAMYYCARDGTAWFAYWGQGTLVTVSA
VL: DIQMTQTTSSLSASLGDRVTISCRASQDISNYLNWYQQKPDGTVKLLIYYTSRLHSGVPSRFSGSGSGTDYSLTISNLEEEDIATYFCQQGNTLRTFGGGTKLEIK
notes: Mouse monoclonal IgG1, kappa light chain; also called mouse monoclonal antibody MFD108; hybridoma ATCC PTA-120816
